Reference: patent US20230039157A1
Values belong to the molecule of their own block, whether it stands above or below them.

What was measured:
[1] = biological target: IL-2Rα, IL-2Rβ and common γ chain on CTLL-2 cells; assay: cell-based or functional assay
[2] = biological target: IL-2Rβ and common γ chain on 32Dβ cells; assay: cell-based or functional assay
[3] = biological target: 21t15-7s multi-chain chimeric polypeptide
TF219 = biological target: T1, TF219
T1 chain: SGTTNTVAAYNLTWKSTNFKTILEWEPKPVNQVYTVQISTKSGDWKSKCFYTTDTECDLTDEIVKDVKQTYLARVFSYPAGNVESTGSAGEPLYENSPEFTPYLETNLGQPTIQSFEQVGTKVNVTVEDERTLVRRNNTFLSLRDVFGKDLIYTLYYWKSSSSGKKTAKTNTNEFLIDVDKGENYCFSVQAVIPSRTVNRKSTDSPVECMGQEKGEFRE

[4] = biological target: mouse (m)21t15 multi-chain chimeric polypeptide
[5] = biological target: 21t15-TGFRs multi-chain chimeric polypeptide
[6] = biological target: 18t15-12s multi-chain chimeric polypeptide

- EC50 of CTLL-2 cell proliferation (WST1, absorbance at 450 nM) [1]: 548 pM
- EC50 of 32Dβ cell proliferation (WST1, absorbance at 450 nM) [2]: 140 pM
Molecule: recombinant IL-2 (from UniProt P60568 21-153) (ligand)

- EC50 of 32Dβ cell proliferation (WST1, absorbance at 450 nM) [2]: 1.6 pM
Molecule: recombinant IL-15 (from UniProt P40933 49-162) (ligand)

B1: Factor VIIa (protein)
chain: ANAFLEELRPGSLERECKEEQCSFEEAREIFKDAERTKLFWISYSDGDQCASSPCQNGGSCKDQLQSYICFCLPAFEGRNCETHKDDQLICVNENGGCEQYCSDHTGTKRSCRCHEGYSLLADGVSCTPTVEYPCGKIPILEKRNASKPQGRIVGGKVCPKGECPWQVLLLVNGAQLCGGTLINTIWVVSAAHCFDKIKNWRNLIAVLGEHDLSEHDGDEQSRRVAQVIIPSTYVPGTTNHDIALLRLHQPVVLTDHVVPLCLPERTFSERTLAFVRFSLVSGWGQLLDRGATALELMVLNVPRLMTQDCLQQSRKVGDSPNITEYMFCAGYSDGSKDSCKGDSGGPHATHYRGTWYLTGIVSWGQGCATVGHFGVYTRVSQYIEWLQKLMRSEPRPGVLLRAPFP
- FX activation measured by FXa activity (chromogenic substrate S-2765) [3]: TF219 and TF219-containing multi-chain chimeric polypeptides had very low FX activation activity
- FX activation measured by FXa activity (chromogenic substrate S-2765) (TF219): TF219 and TF219-containing multi-chain chimeric polypeptides had very low FX activation activity
- FX activation measured by FXa activity (chromogenic substrate S-2765) [4]: TF219 and TF219-containing multi-chain chimeric polypeptides had very low FX activation activity
- FX activation measured by FXa activity (chromogenic substrate S-2765) [5]: TF219 and TF219-containing multi-chain chimeric polypeptides had very low FX activation activity
- FX activation measured by FXa activity (chromogenic substrate S-2765) [6]: TF219 and TF219-containing multi-chain chimeric polypeptides had very low FX activation activity
